Tests used:
Kar1 peptide = biological target: T1, Kar1 peptide (budding yeast)
T1 peptide: KKRELIESKWHRLLFHDKK

Bbp1-TAP = biological target: T2, Bbp1-TAP (budding yeast, UniProt Q12365 1-385); assay: pull-down
T2 sequence (looked up): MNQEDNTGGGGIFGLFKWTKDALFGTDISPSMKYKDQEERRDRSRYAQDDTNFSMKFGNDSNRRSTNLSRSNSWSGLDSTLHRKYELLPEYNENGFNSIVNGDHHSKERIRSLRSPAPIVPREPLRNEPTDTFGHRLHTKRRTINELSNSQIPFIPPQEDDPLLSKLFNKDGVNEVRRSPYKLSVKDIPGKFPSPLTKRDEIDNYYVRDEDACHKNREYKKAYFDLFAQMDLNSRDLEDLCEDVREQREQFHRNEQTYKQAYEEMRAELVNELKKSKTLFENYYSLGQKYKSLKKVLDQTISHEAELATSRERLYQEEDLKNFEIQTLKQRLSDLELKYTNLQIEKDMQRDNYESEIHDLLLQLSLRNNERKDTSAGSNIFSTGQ

B1: Cdc31-T110D (natural protein, budding yeast, UniProt P06704 1-161, looked up)
chain: MSKNRSSLQSGPLNSELLEEQKQEIYEAFSLFDMNNDGFLDYHELKVAMKALGFELPKREILDLIDEYDSEGRHLMKYDDFYIVMGEKILKRDPLDEIKRAFQLFDDDHDGKISIKNLRRVAKELGETLTDEELRAMIEEFDLDGDGEINENEFIAICTDS
B1 was tested. Which “fold lower ability to bind than wild-type Cdc31” value (Kar1 peptide) did it give?
The value was ~10 fold.

B2: GST-Spc29 phosphorylated by 6His-Mps1 (natural protein, budding yeast, UniProt P33419 1-253, looked up)
chain: MDYSNFGNSASKKFQDDTLNRVRKEHEEALKKLREENFSSNTSELGNKKHYRAQERMSSPLHRLSPTGKSDDRKVKSPLDDKLRRQLREGNTRLPPPPFSSYGMPPTNRSNLDRIRRRTSSPVRTDKFASQNVIDDQRLEIKYLERIVYDQGTVIDNLTSRITRLESFILNSISDRGDKNFASLEHSRSFSGFPTNKTYGLQMGGLYENDMPYRRSSDNINKEGAREDRSSQIHIENESTEDILKILSSSFHN
modifications: phosphorylated in vitro by Mps1; sites identified by LC-MS/MS: T18, T159, S187 and T240
Which “fold binding against GST-Spc29 treated with kinase-dead mps1KD” value (Bbp1-TAP) does the source give for B2 here?
The value was 5 fold.

B3: GST-Spc29, nonphosphorylated (natural protein, budding yeast, UniProt P33419 1-253, looked up)
chain: MDYSNFGNSASKKFQDDTLNRVRKEHEEALKKLREENFSSNTSELGNKKHYRAQERMSSPLHRLSPTGKSDDRKVKSPLDDKLRRQLREGNTRLPPPPFSSYGMPPTNRSNLDRIRRRTSSPVRTDKFASQNVIDDQRLEIKYLERIVYDQGTVIDNLTSRITRLESFILNSISDRGDKNFASLEHSRSFSGFPTNKTYGLQMGGLYENDMPYRRSSDNINKEGAREDRSSQIHIENESTEDILKILSSSFHN
Does B3 bind (Bbp1-TAP)?
Result: binds

Reference: publication PMC2854372 (The Journal of Cell Biology, 2010)
